Data on two substances can be found in PMC3983062.

The target of the test is RRV ORF45 (R45), as expressed in RRV-infected rhesus fibroblasts (Rhesus monkey rhadinovirus (RRV), strain H26-95) (UniProt Q9J2K2). Nature of the test: FRET or BRET; filter-based processed FRET (PFRET) on fixed RRV-infected RhF stained with labelled antibodies (Alexa488 donor, Alexa555 acceptor); regions of interest in the nuclei.

In turn, “RSK2 (p90 ribosomal S6 kinase 2), endogenous in rhesus fibroblasts (natural protein)” yielded a r (distance between the fluorophores, from FRET) of 4.7 nm.
In the case of “pERK2 (phosphorylated, activated ERK2), endogenous in rhesus fibroblasts (from UniProt F7ECR3 1-360) (natural protein)” it was 4.5 nm.
